For experiment [1], the target named is CD47 on the surface of tumor cells (Raji cells, Jurkat cells, A549 cells) (human) (UniProt Q08722). Put plainly: flow cytometry on Raji cells.
For experiment [2] the target is unchanged. Put plainly: flow cytometry on Jurkat cells.
For experiment [3], the target named is Biotin-Fc-CD47 (Homo sapiens (Human)) (UniProt Q08722). The experiment can be described thus: competition ELISA: blocks Biotin-Fc-CD47 binding to coated SIRPα-His. On the technique in general: In an ELISA, binding on a coated surface is turned into a signal by an enzyme label.
Experiment [4] has as its target CD47 on the surface of tumor cells (Raji cells, Jurkat cells, A549 cells) (human) (UniProt Q08722). The experiment can be described thus: flow cytometry on A549 cells. On the technique in general: In flow cytometry, cells or beads pass a laser one at a time.
The target in experiment [5] is CD47-FITC (Homo sapiens (Human)) (UniProt Q08722). Put plainly: flow cytometry of the wild domain control with the same gate as the library panel above it (CD47-FITC in the text, x axis printed APC-A), third panel, under the 12.5% panel.
The target is the same in experiment [6]. The experiment can be described thus: flow cytometry of the wild domain control with the same gate as the library panel above it (CD47-FITC in the text, x axis printed APC-A), first panel, under the 3% panel.
Experiment [7] shares this target. The experiment can be described thus: flow cytometry of the wild domain control with the same gate as the library panel above it (CD47-FITC in the text, x axis printed APC-A), second panel, under the 4.9% panel.

As for TTI-621 (Fc fusion), the EC50 (usually the concentration needed to bring the measured effect to its halfway point) is 0.0404 µg/mL in experiment [1], 0.0539 µg/mL in experiment [2] and 1 µg/mL in experiment [4]. The maximum fluorescence intensity was determined as 600 in experiment [1], 3000 in experiment [2] and 60 in experiment [4]. Also, in experiment [3], the 50% inhibitory concentration (IC50) (commonly the point on the concentration scale where inhibition reaches its midpoint) worked out at 494 µg/mL.

B1: Wild domain control (receptor, part only; not given: display vector transmembrane region, not shown: another chain or arm of the molecule; large carriers; small tags and cut ends)
chain: ELQVIQPDKSVLVAAGETATLRCTATSLIPVGPIQWFRGAGPGRELIYNQKEGHFPRVTTVSDLTKRNNMDFSIRIGNITPADAGTYYCVKFRKGSPDDVEFKSGAGTELSVRAKPS
modifications: displayed on the CHO cell surface through the pTM transmembrane region (no letters given); the pTM signal peptide is left off as cleaved
On to B1, for which the percent of cells in gate P2 in experiment [5] is 0%; in experiment [6], 1.3%; in experiment [7] it was 0%.

For the origin of these results see patent publication US20210171593A1.
